Experimental data: patent US20250163182A1 (Janssen / Centocor, published 2025)

What was measured:
[1] = biological target: T1, human CD3 on T cells (human, UniProt P07766 23-207); experiment: flow cytometry on human T cells, donor 110042496
T1 construct: on T cells it stands in the TCR-CD3 complex; also called human T cells; T cells isolated from healthy human donors

[2] = biological target: T2, human ENPP3 on cells (human, UniProt O14638 1-875); experiment: cell-based or functional assay
T2 sequence (looked up): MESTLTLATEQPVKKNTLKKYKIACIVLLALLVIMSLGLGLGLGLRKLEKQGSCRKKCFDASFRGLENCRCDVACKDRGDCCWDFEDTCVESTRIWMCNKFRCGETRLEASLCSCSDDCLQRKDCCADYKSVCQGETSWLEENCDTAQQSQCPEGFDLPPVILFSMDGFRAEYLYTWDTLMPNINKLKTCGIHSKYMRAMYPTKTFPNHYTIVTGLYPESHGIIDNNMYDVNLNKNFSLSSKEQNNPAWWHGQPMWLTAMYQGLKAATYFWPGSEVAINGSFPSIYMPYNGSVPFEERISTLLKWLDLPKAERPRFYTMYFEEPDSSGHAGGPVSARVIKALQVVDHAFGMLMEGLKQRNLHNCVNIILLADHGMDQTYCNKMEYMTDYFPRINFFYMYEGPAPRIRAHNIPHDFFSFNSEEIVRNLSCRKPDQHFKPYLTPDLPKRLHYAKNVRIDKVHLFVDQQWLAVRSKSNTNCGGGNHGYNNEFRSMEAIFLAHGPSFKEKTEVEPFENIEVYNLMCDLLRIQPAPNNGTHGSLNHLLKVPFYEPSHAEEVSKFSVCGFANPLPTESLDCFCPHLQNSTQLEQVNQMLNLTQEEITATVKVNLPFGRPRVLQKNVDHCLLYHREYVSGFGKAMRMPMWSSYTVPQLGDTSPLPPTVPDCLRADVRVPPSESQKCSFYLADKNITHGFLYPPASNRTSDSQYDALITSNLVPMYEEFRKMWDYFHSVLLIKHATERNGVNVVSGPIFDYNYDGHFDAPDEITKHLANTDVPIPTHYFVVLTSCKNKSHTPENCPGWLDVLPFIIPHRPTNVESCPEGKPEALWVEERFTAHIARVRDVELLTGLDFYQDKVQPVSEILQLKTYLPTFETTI

[3] = biological target: T2, human ENPP3 on cells; experiment: flow cytometry on VMRCRCW cells
[4] = biological target: T3, cynomolgus monkey ENPP3 on HepG2-KO cyENPP3 OE cells (cynomolgus monkey, UniProt A0A2K5TKP4 1-874); experiment: cell-based or functional assay
T3 sequence: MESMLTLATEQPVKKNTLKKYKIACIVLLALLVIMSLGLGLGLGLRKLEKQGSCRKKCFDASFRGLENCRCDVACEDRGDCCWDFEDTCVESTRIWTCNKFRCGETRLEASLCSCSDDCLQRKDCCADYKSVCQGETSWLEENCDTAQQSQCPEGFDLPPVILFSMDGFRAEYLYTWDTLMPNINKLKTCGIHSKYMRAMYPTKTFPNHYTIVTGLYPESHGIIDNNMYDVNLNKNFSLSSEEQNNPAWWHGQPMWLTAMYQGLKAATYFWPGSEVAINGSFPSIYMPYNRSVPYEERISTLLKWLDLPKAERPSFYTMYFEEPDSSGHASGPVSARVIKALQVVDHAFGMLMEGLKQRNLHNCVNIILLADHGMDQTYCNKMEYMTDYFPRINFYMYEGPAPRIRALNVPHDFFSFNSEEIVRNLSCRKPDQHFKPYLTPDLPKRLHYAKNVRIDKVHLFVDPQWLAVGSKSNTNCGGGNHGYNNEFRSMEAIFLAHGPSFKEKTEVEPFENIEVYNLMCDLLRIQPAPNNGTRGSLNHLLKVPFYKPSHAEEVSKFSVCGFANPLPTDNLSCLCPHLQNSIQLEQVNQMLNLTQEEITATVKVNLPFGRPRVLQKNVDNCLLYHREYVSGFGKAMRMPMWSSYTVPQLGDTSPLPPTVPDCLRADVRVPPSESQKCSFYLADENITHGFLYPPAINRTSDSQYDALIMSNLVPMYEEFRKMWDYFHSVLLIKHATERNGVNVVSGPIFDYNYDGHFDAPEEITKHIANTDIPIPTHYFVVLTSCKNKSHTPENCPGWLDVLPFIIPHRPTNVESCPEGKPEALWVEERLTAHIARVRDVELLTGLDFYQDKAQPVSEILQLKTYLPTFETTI

[5] = biological target: T1, human CD3 on T cells; experiment: flow cytometry on human T cells, average of 6 donors
[6] = biological target: T2, human ENPP3 on cells; experiment: flow cytometry on A704 cells
[7] = biological target: T2, human ENPP3 on cells; experiment: cell-based or functional assay; remark: listed apart in the source
[8] = biological target: T2, human ENPP3 on cells; experiment: cell-based or functional assay; remark: listed apart in the source
[9] = biological target: T1, human CD3 on T cells; experiment: flow cytometry on human T cells, donor 888668965

T1 sequence (P07766 23-207 limits assumed): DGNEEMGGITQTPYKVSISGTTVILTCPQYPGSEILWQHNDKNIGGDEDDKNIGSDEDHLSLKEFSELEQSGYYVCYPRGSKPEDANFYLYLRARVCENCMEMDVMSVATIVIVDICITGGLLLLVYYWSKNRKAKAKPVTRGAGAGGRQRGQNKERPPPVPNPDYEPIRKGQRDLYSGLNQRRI

EC50 [1]: 147 nM
T-cell activation (CD25) EC50; A704; T-cell donor 110040278; E:T 3:1 [2]: 8 pM
T-cell activation (CD25) EC50; A704; T-cell donor 110042496; E:T 3:1 [2]: 0.017 nM
T-cell activation (CD25) EC50; A704; T-cell donor 110042593; E:T 3:1 [2]: 0.013 nM
T-cell activation (CD25) EC50; A704; T-cell donor 110044049; E:T 3:1 [2]: 8 pM
T-cell activation (CD25) EC50; A704; T-cell donor 110048457; E:T 3:1 [2]: 0.01 nM
T-cell activation (CD25) EC50; A704; T-cell donor 888668965; E:T 3:1 [2]: 8 pM
T-cell activation (CD25) EC50; VMRCRCW; T-cell donor 110040278; E:T 3:1 [2]: 7 pM
T-cell activation (CD25) EC50; VMRCRCW; T-cell donor 110042496; E:T 3:1 [2]: 0.015 nM
T-cell activation (CD25) EC50; VMRCRCW; T-cell donor 110042593; E:T 3:1 [2]: 0.017 nM
T-cell activation (CD25) EC50; VMRCRCW; T-cell donor 110044049; E:T 3:1 [2]: 9 pM
T-cell activation (CD25) EC50; VMRCRCW; T-cell donor 110048457; E:T 3:1 [2]: 9 pM
T-cell activation (CD25) EC50; VMRCRCW; T-cell donor 888668965; E:T 3:1 [2]: 0.016 nM
EC50 [3]: 0.5 nM
T-cell activation EC50; HepG2-KO cyno ENPP3-OE; human T cells; E:T 3:1 [4]: 0.023 nM
EC50 [5]: 177 nM
EC50 [6]: 1.01 nM
T-cell activation (Flow Cytometry) EC50; A704; E:T 3:1 [8]: 0.011 nM
T-cell activation (Flow Cytometry) EC50; HepG2; E:T 3:1 [8]: 0.041 nM
T-cell activation (Flow Cytometry) EC50; VMRCRCW; E:T 3:1 [8]: 0.018 nM
EC50 [9]: 197 nM
B1: NPP3B815 (bispecific antibody, human IgG1, kappa, L234A L235A)
heavy 1: EIVLTQSPATLSASPGERVTLSCSASSSVSYMNWYQQKPGCAPRRWIYDSSKLASGVPARFSGSGSGRDYTLTISSLEPEDFAVYYCQQWSRNPPTFGGGTKVEIKGGGSGGSGGCPPCGGSGGQVQLVQSGAEVKKPGSSVKVSCKASGYTFTRSTMHWVKQAPGQGLEWIGYINPSSAYTNYNQKFQGRVTLTADKSTSTAYMELSSLRSEDTAVYYCASPQVHYDYAGFPYWGCGTLVTVSSEPKSSDKTHTCPPCPAPEAAGGPSVFLFPPKPKDTLMISRTPEVTCVVVSVSHEDPEVKFNWYVDGVEVHNAKTKPREEQYNSTYRVVSVLTVLHQDWLNGKEYKCKVSNKALPAPIEKTISKAKGQPREPQVYTLPPSREEMTKNQVSLWCLVKGFYPSDIAVEWESNGQPENNYKTTPPVLDSDGSFFLYSKLTVDKSRWQQGNVFSCSVMHEALHNHYTQKSLSLSPGK
heavy 2: EVQLVESGGGRVKPGGSLRLSCAASGFTFSDYSMNWVRQAPGKGLEWVSSISSISSYVKYADSVKGRFTMSRDNAKNSLFLQMNSLRDEDMAVYYCARGHYFDYWGQGTLVTVSSASTKGPSVFPLAPSSKSTSGGTAALGCLVKDYFPEPVTVSWNSGALTSGVHTFPAVLQSSGLYSLSSVVTVPSSSLGTQTYICNVNHKPSNTKVDKKVEPKSCDKTHTCPPCPAPEAAGGPSVFLFPPKPKDTLMISRTPEVTCVVVSVSHEDPEVKFNWYVDGVEVHNAKTKPREEQYNSTYRVVSVLTVLHQDWLNGKEYKCKVSNKALPAPIEKTISKAKGQPREPQVYTLPPSREEMTKNQVSLSCAVKGFYPSDIAVEWESNGQPENNYKTTPPVLDSDGSFFLVSKLTVDKSRWQQGNVFSCSVMHEALHNRFTQKSLSLSPGK
light: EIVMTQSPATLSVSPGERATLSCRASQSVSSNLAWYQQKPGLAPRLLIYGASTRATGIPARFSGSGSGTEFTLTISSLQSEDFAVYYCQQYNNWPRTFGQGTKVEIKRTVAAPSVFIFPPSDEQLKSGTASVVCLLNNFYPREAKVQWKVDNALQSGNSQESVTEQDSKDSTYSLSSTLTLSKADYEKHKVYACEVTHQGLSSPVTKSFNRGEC
notes: HC2 carries the NPP3B56 Fab and the hole T366S, L368A, Y407V; Fc with L234A, L235A, D265S; The CPPC linker cysteines form disulfides with engineered Cys at L42 and H105 (Chothia); also called NPP3B56×CD3B2030-N106A; ENPP3×CD3 (NPP3B815)
Cytotox. EC50; HepG2-KO cyno ENPP3-OE; human T cells; E:T 3:1 [4]: 0.079 nM
killing EC50; A704; PBMC donor 110040278; E:T 3:1 [7]: 0.052 nM
killing EC50; A704; PBMC donor 110040278; E:T 5:1 [7]: 0.028 nM
killing EC50; A704; PBMC donor 110042496; E:T 3:1 [7]: 0.097 nM
killing EC50; A704; PBMC donor 110042496; E:T 5:1 [7]: 0.061 nM
killing EC50; A704; PBMC donor 110042593; E:T 1:1 [7]: 0.124 nM
killing EC50; A704; PBMC donor 110042593; E:T 3:1 [7]: 0.039 nM
killing EC50; A704; PBMC donor 110042593; E:T 5:1 [7]: 0.015 nM
killing EC50; A704; PBMC donor 110044049; E:T 1:1 [7]: 0.131 nM
killing EC50; A704; PBMC donor 110044049; E:T 3:1 [7]: 0.052 nM
killing EC50; A704; PBMC donor 110044049; E:T 5:1 [7]: 0.016 nM
killing EC50; A704; PBMC donor 110048457; E:T 3:1 [7]: 0.046 nM
killing EC50; A704; PBMC donor 110048457; E:T 5:1 [7]: 0.013 nM
killing EC50; A704; PBMC donor 888668965; E:T 1:1 [7]: 0.107 nM
killing EC50; A704; PBMC donor 888668965; E:T 3:1 [7]: 0.036 nM
killing EC50; A704; PBMC donor 888668965; E:T 5:1 [7]: 0.015 nM
killing EC50; VMRCRCW; PBMC donor 110040278; E:T 5:1 [7]: 0.033 nM
killing EC50; VMRCRCW; PBMC donor 110042496; E:T 5:1 [7]: 0.065 nM
killing EC50; VMRCRCW; PBMC donor 110042593; E:T 5:1 [7]: 0.033 nM
killing EC50; VMRCRCW; PBMC donor 110044049; E:T 5:1 [7]: 0.051 nM
killing EC50; VMRCRCW; PBMC donor 110048457; E:T 5:1 [7]: 0.063 nM
killing EC50; VMRCRCW; PBMC donor 888668965; E:T 5:1 [7]: 0.062 nM
Tumor cell killing (Incucyte) EC50; A704; E:T 3:1 [8]: 0.03 nM
Tumor cell killing (Incucyte) EC50; HepG2; E:T 3:1 [8]: 0.53 nM
Tumor cell killing (Incucyte) EC50; TUHR4TKB; E:T 3:1 [8]: 0.05 nM
Tumor cell killing (Incucyte) EC50; TUHR10TKB; E:T 3:1 [8]: 0.02 nM
Tumor cell killing (Incucyte) EC50; VMRCRCW; E:T 3:1 [8]: 0.13 nM
